Experiment: yeast display, Sf9 membrane polyspecificity reagent, FACS + sequencing; frameworks hold sequencing errors
How it was run: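 Using colony PCR, genes from sorted yeast display clones were amplified, then sequenced on MiSeq at 2 × 250 and filtered by CDR length. The clones had been stained with 10% biotinylated, detergent-solubilized Sf9 membrane reagent for 1 hour at 4 °C and sorted by FACS into low and high (top ~1%) gates on anti-HA and streptavidin fluorescence. Polyreactivity labels come from the gate of origin.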

| Sequence | polyreactivity (PSR sort gate) |
| --- | --- |
| QVQLVESGGGLVQAGGSLRLSCAASGFTFDGYAMGWYRQAPVKERDLVAAISDSGDSTYYADSVKGRFTISRDNAKNTVYVQMNILKPEDTAVYYCNAEQWQSSEYGEWSKRDYWGQGTQVTVSS | low polyreactivity |
| QVQLVESGGGLVQAGGSLRLSCAASGFTFDHYAMGWCRQAPGKERELVAAITSSGGRTYYADSVKGRFTISRDNAKNTVYLQMNSLKPEDTAVYYCNARPVYYSGYGYWGQGTQVTVSS | high polyreactivity |
| QVQLVESGGGLVQAGGSLRLSCAASGFTFDKYAMGWYRQAPGKERELVAAISGSGGTTYYADSVKGRFTISRDNAKNTVYLQMNSLKPEDTAVYYCATRLYSIYSYGYWGQGTQVTVSS | high polyreactivity |
| QVQLVESGGGLVQAGGSLRLSCAASGFTFDLYAMGWSRQAPGKERELVASISSGGITYYADSVKGRFTITRDNANNTVYLQMNSLKPEDTAVYYCARDWRYGSWEGDDYWGQGTQVTVSS | low polyreactivity |
| QVQLVESGGGLVQAGGSLRLSCAASGFTFDLYAMGWYRQAPGKERELVAAISWSGGSTRYADSVKGRFTISRDNAKNTVYLQMNSLKPADSAVYYCARQPRLYFKGKLYGYWGQGTHVTVSS | high polyreactivity |
| QVQLVESGGGLVQAGGSLRLSCAASGFTFDNYVMGWYRQAPGKERELVAAISKSGTSTYYADSVKGRFTISRDNAKNTVYLQMNSLKPEDTAVYYCAAELPGYYYAYDYWGQGTQVTVSS | high polyreactivity |
| QVQLVESGGGLVQAGGSLRLSCAASGFTFDNYVMGWYSQAPGKERELVAAISKSGTSTYYADSVKGRFTISRDNAKNTVYLQMNSLKPEDTAVYYCAAALPGYGDYYYWGQGTQVTVSS | high polyreactivity |
| QVQLVESGGGLVQAGGSLRLSCAASGFTFDRYAMGWYRQAPGKERELVAAISWRGGSTYYADSVKGRFTISRDNAKNTDYLQMNSLKPEDTAVYYCNKGTRHTTAGTPRYDYWGQGTQVTVSS | high polyreactivity |
| QVQLVESGGGLVQAGGSLRLSCAASGFTFDSNAMGWYRQAPGKERELVAAISRRGGSTYYADSVKGRFTISRDNAKNTVYLQMNSLKPEDTAVYYCNKESWRIGRYQYDSWGQGTQVTVSS | high polyreactivity |
| QVQLVESGGGLVQAGGSLRLSCAASGFTFDSYAMGWYRQAPGKERELVAAITSSGGRTYYADSVKGRFTISRDNAKNTVYLQMNSLKPEDTSVYYCAARAISNFGYWGQGTQVTVSS | high polyreactivity |
| QVQLVESGGGLVQAGGSLRLSCAASGFTFDSYAMGWYRQAPGKERELVAAITSTGGSTYYADSVKGRFTISRDTAKNTVYLQMNSLKPEDTAVYYCAARGGYYKRGYWGQGTQVTVSS | high polyreactivity |
| QVQLVESGGGLVQAGGSLRLSCAASGFTFDSYDMGWSRQAPVKEREVVAAITWSGGSTYYADSVKGRFTISRDNAKNTVYLQMNSLKQEDTAVYYCNADTGTYWVPWYHDGYDYWGQGTQVTVSS | low polyreactivity |
| QVQLVESGGGLVQAGGSLRLSCAASGFTFDSYDMGWYRQAPGKERELVAAISKSGGTTYYADSLKGRFTISRDNANNTVYLQMNSLKPEDTAVFYCAAGGPRGGYGRYYYWGPGTQVTVSS | high polyreactivity |
| QVQLVESGGGLVQAGGSLRLSCAASGFTFDSYDMGWYRQAPGKERELVAAITWSGGSTYYADSVKGRFTISRDNAKNTVYLQMYSLKPEDTAVYYCKADTGTYWVPWYHDGYDYWGEGTQVTVSS | low polyreactivity |
| QVQLVESGGGLVQAGGSLRLSCAASGFTFDVNAMGWYRQAPGKERELVASITGSGSRTDYADSVKGRFTISRDNAKNTVYLQMNSLKPEDTAVYYCATDQRLGYQDDDYWGQGTQVTVSS | low polyreactivity |
| QVQLVESGGGLVQAGGSLRLSCAASGFTFDVNAMGWYRQAPGKERELVATISSNGGSTYYADSVKGRFTISRDNAKNTVYLQMNSLKPEDTAVYYCAADVYRLLRRYRYYYWGQGTQVTVSS | low polyreactivity |
| QVQLVESGGGLVQAGGSLRLSCAASGFTFDVYALGWYRQAPGKERELVAAISARGGSTCYADSVKGRFTISRDNAKNTVYLQMHSLKPEDTAVYYCNTYPKKKRPNEYDYWGQGTQVTVSS | high polyreactivity |
| QVQLVESGGGLVQAGGSLRLSCAASGFTFDVYAMGWYRQAPGKERELVAAITGSDGSTYYADSVKGRFTISRDNAKNTVYLQMNSLKPEDTAVYYCNARSRSVVYKYDYWGQGTQVTVSS | low polyreactivity |
| QVQLVESGGGLVQAGGSLRLSCAASGFTFDYNAMGWYRQAPGKDRELVAVISSSGSRTYYADSVKGRFTISRDNAKNTVYLQMNSLKPEDTAVYYCNSGRTYRRLGDYWGQGTQVTVSS | high polyreactivity |
| QVQLVESGGGLVQAGGSLRLSCAASGFTFDYYAMGWYRPAPGKERELVAAISWRGTTTYYADSVKGRFTISRDNEKNTVYLQMNSLKPEDTAVYYCAADSLFGHYDYWGHGTQVTVSS | low polyreactivity |
| QVQLVESGGGLVQAGGSLRLSCAASGFTFDYYAMGWYRQAPGKERELVAAISVSGGITYYADSVKGRFTISRDNAKNTVYLQMNSLKPEDTAVYYCNAVFYYPYPADRRDYWGQGTQVTVSS | high polyreactivity |
| QVQLVESGGGLVQAGGSLRLSCAASGFTFDYYNMGWYRQAPGKERELVAAITSGASTNYADSVKGRFTISRDNAKNTVYLQMNSLKPEDTAVYYCAAVLAGGVYWVVHYDYWGQGTQVTVSS | low polyreactivity |

| Sequence | polyreactivity (PSR sort gate) |
| --- | --- |
| QVQLVESGGGLVQAGGSLRLSCAASGFTFEDNTMGWYRQAPGKERELVAAITWGGVSTYYADSVKGRFTISRDNAKNTVYLQMNSLKPEDTAVYYCAAEEQVVKAHGDYWGQGTQVTVSS | low polyreactivity |
| QVQLVESGGGLVQAGGSLRLSCAASGFTFEENAMGWYRQAPGINYSGASTYYADSVKGRFTISRDKAKNTVYLQMNSLKPDDTAVYYCAADVVAQMNYWGQGTQVTVSS | low polyreactivity |
| QVQLVESGGGLVQAGGSLRLSCAASGFTFEGYAMGWYRQAPGKERELVAAISSNGGRTYYADSVKGRFTISRDNAKNTVYLQMNSLKPEDTAVYYCNARRAYSGPDYDYYHGRRYDYWGQGTQVTVSS | low polyreactivity |
| QVQLVESGGGLVQAGGSLRLSCAASGFTFERNAMGWYIQAPGKERELVATINGSSDSTYYADSVKGRFTISRDNAKNTVYLQMNSLKPEDTAVYYCNADSITEGNSRYSHFDYWGQGTQVTVSS | low polyreactivity |
| QVQLVESGGGLVQAGGSLRLSCAASGFTFESYAMGWYRQAPGKERELVAAISWNGGSTYYADSVKGRFTISRDNAKNTVYLQMNSLKPADTAVYYCAARGRAPRFRRIGYDYWGQGTQVTVSS | high polyreactivity |
| QVQLVESGGGLVQAGGSLRLSCAASGFTFEYYAMGWSRQAPGKETELVATITWNGGSTYYADSVKGRFTISRDNAKNTVYLQMNSLKPVDTAVYYCAADEQAYYVRRFDYWGQCTQVTVSS | low polyreactivity |
| QVQLVESGGGLVQAGGSLRLSCAASGFTFEYYAMGWYRQAPGKERELVAAIRSDSGTNYADSVKGRFTISRDNAKNTVYLQMNSLIPEDTAVYYCAAPTVVLIDYDYWGQGTQVTVSS | low polyreactivity |
| QVQLVESGGGLVQAGGSLRLSCAASGFTFFDNAMGWYRQAPGKERELVAAITWSDGSTYYADSVKGRFTISRDNAKNTVYLQMNSLKPEDTAVYYCAVGFISYSYSNYYDVWYEYYYWGQGTQVTVSS | low polyreactivity |
| QVQLVESGGGLVQAGGSLRLSCAASGFTFFFNAMGWYRQAPGKERELVASIRSDGDTNYADSVKGRFTISRDNAKNTVYLQMNSLKPEDTAVYYCAKVWYVFRYVSTEYDYWGQGTQVTVSS | high polyreactivity |
| QVQLVESGGGLVQAGGSLRLSCAASGFTFFFYAMGWYRQAPGKVRELVAGISQSGGNTNYADSVKGRFTISRDNAKNTVYLQMNSLKPEDTAVYYCAKTRYQYWRVTAFDYWGQGTQVTVSS | low polyreactivity |
| QVQLVESGGGLVQAGGSLRLSCAASGFTFFGYAMGWYRQAPGKERELVATISDTGGSTYADSVKGRFTISRDNAKNTVYLQMNSLKPEDTAVYYFNARSVFYSMDYWGQGTQVTVSS | low polyreactivity |
| QVQLVESGGGLVQAGGSLRLSCAASGFTFFIYVMGWYRQAPGKEREYVAAISSSGDSTYYADSVKGRFTISRDNAKNTVYLQMNSLIPEDTAVYYCNAGDKVSSYWYDYWGQGTQVTVSS | low polyreactivity |
| QVQLVESGGGLVQAGGSLRLSCAASGFTFFPYAMGWYRQAPGKEREFVAANFSDGSTYYADSVKGRFTISRDNAKNTVYLQINILKPEDTAVYYWAAAWYEQAYQTGYFEFDYWGLGTQVTVSS | low polyreactivity |
| QVQLVESGGGLVQAGGSLRLSCAASGFTFFSNAMGWYREAPGQERELVASITNDGSTYADSVKGRFTISRDNAKNTVYLQMNSLKPEDTAVYYCAARFPQWRYSRRTCERFDYWGQGTQVTVSS | low polyreactivity |
| QVQLVESGGGLVQAGGSLRLSCAASGFTFFSNAMGWYRQAPGKERELVASISASGSGTYYADSVKGRFTISRDNAKNTVYLQMNSLKPEDTAVYYCAAQYRVNARSGVYRGYRYNYWGQGTQVTVSS | high polyreactivity |
| QVQLVESGGGLVQAGGSLRLSCAASGFTFFTNAMGWYRQAPGKEREFVAAISKSGSRTYYADSVKGRFTISRDNAKNTVYLQMNSLKPEDTAVYYCAAGYVTLFGFYRYYLWGQGTQVTVSS | high polyreactivity |
| QVQLVESGGGLVQAGGSLRLSCAASGFTFFVYAMGWYRKAPGKERELVATINWSGASTYYADSVKGRFTISRDNAKNTVYLQMNSLKPEDTAVYYCDKDGHYPLVYLAFDYWGQGTQVTVSS | low polyreactivity |
| QVQLVESGGGLVQAGGSLRLSCAASGFTFFVYGMGWYRQAPGKERELVATINWSGASTYYADSVKGRFTISRDNAKNTVYLQMNSLKPEDTAVYSCAKDGHYPLVYLAFDYWGQGTQVTVSS | low polyreactivity |
| QVQLVESGGGLVQAGGSLRLSCAASGFTFGANVMGWYRPAPGKERELVAGITWSGDSTYYADSVKGRFTISRDNAKNTVYLQMNSLKPEDTAVYYCAADVYDGEYILDYDYWGQGTQVTVSS | low polyreactivity |
| QVQLVESGGGLVQAGGSLRLSCAASGFTFGDNAMGWYRQAPGKERELVAAITSTGGSTNYADSVKGRFTISRDNAKNTVYLQINSLKPEDTAVYYCAAEWLYPHDGGYPRPMDYWGQGTQVTVSS | low polyreactivity |
| QVQLVESGGGLVQAGGSLRLSCAASGFTFGDYVMGWYRQAPGKERELVAAITTSGTRTSYADSVKGRFTISRDNAKNTVYLQMNSLKPEDTAVYYCAAEHTNYYYFWQAHYYWGQGTQVTVSS | high polyreactivity |
